# Reference: US20200040057A1 (IMMATICS BIOTECHNOLOGIES, published 2020)
# Biological target: HLA-B*07 (human)
# Assay: UV peptide exchange ELISA; +++ = yield >50
row,Binder,peptide exchange yield [%]
1,LPLHRGDLVI,50 to 75
2,QPQQPGFFL,50 to 75
3,RIRVTSEVL,50 to 75
4,HPAPPVTSA,50 to 75
5,KPAAAGVKKVA,50 to 75
6,RITWKGLLL,50 to 75
7,GPQRTTSV,50 to 75
8,SVLPRALSL,50 to 75
9,KPRATWTLKL,50 to 75
10,RPFLRLPSL,50 to 75
11,RPRPPKVL,50 to 75
12,VPAAPTKAL,50 to 75
13,RPQGAVGGL,50 to 75
14,FAFYGGKSL,50 to 75
15,SPTPVFTTL,50 to 75
16,LIAARGSLVL,50 to 75
17,RVLLRWISL,50 to 75
18,SPYADIIPSA,50 to 75
19,SPSLQSSRESL,50 to 75
20,SPSKSLEM,50 to 75
21,VPFVPRTSV,50 to 75
22,APEPRAALL,50 to 75
23,QPANFIVLL,50 to 75
24,SPARALLLALA,50 to 75
25,FPAFLEAM,50 to 75
26,VPPQNPRPSL,50 to 75
27,AASPVGSAL,50 to 75

row,Binder,peptide exchange yield [%]
1,VPVSHPVLTL,50 to 75
2,APRPRLLLL,50 to 75
3,APSMLRKNQL,50 to 75
4,KPMLPPAAF,50 to 75
5,RPRPPKVLGL,50 to 75
6,HPYSDLADVF,50 to 75
7,RAVPVGSGL,50 to 75
8,SPFSKRIKL,50 to 75
9,IPIDQILNSF,50 to 75
10,SSPRGTTSTL,50 to 75
11,LPYEKVSRL,50 to 75
12,APRSPGQVTPRGL,50 to 75
13,SAAPPGASL,50 to 75
14,KPIRTGISPLAL,50 to 75
15,LHAMNSLSAM,50 to 75
16,IPAPQGAVL,50 to 75
17,WPRLPGAGL,50 to 75
18,LPMTHRLQL,50 to 75
19,SPDSAILKL,50 to 75
20,MPATPSLKV,50 to 75
21,KPRATWTL,50 to 75
22,APADEPRTVL,50 to 75
23,YPLQGPGLLSV,50 to 75
24,YPGFTKRL,50 to 75
25,RPHQKGWLSI,50 to 75
26,NPREPEKSL,50 to 75
27,RPFPLALL,50 to 75
